Measured values reported in PMC4661386.

Target: inter-alpha-inhibitor (IαI) (human) (UniProt P19827)
Sequence (P19827 whole entry, looked up): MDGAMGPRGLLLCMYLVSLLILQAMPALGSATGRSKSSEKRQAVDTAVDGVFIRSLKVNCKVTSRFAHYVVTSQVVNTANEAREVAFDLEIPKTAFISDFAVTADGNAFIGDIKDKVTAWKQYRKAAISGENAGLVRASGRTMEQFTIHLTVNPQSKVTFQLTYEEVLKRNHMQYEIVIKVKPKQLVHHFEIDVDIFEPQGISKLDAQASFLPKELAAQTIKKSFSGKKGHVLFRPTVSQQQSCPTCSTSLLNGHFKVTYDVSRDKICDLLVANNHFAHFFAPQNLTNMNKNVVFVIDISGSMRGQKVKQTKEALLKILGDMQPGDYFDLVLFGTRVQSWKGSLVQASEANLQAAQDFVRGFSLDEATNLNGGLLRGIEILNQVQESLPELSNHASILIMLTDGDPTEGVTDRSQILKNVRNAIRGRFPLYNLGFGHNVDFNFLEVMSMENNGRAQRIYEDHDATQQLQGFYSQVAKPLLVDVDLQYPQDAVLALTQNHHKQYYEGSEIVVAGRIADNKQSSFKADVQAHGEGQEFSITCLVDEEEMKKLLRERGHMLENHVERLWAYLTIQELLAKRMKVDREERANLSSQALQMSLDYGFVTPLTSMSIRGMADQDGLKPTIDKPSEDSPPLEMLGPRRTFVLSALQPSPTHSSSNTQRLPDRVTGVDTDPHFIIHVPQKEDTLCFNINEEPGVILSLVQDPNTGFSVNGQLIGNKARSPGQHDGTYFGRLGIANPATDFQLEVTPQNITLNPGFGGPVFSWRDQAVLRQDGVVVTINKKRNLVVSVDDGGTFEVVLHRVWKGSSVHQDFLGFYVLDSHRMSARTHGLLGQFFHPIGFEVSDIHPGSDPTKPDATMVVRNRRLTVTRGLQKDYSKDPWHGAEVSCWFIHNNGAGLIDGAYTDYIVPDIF

amount of HC·TSG-6 product with added calcium ions (SDS-PAGE band intensity): 5 % of WT
Substance: Full-length human TSG-6 (rhTSG-6) E183S mutant (from UniProt P98066 18-277) (natural protein)
